Sequences and labels used below:
B1: Arginine-glutamic acid dipeptide repeats protein, residues 502 to 543; numbered along this chain, Q9P2R6 (parent)
chain: LKGYACRHCFTTTSKDWHHGGRENILLCTDCRIHFKKYGELP

± gives the uncertainty stated by the source.

These results are taken from the Human Domainome abundance scans (Beltran et al. 2025).

The variants in the data set derive from B1. Nature of the data set: abundance fitness (aPCA) (normalised: wild type 0, dead -1); higher = more abundant; growth selection in yeast, the domain comes from the species named. As to conditions: Homo sapiens.
For LKGYACRHCFTTTSKDWHHGLRENILLCTDCRIHFKKYGELP [G21L], the abundance fitness was -0.274 ± 0.037.
With LKGYACRHCFTTTSKDWHHGSRENILLCTDCRIHFKKYGELP [G21S] the figure was -0.056 ± 0.041; with LKGYACRHCFTTTSKDWHHGHRENILLCTDCRIHFKKYGELP [G21H], -0.044 ± 0.47; with LKGYACRHCFTTTSKDWHHGPRENILLCTDCRIHFKKYGELP [G21P], -0.24 ± 0.035.
With LKGYACRHCFTTTSKDWHHGIRENILLCTDCRIHFKKYGELP [G21I] the figure was -0.517 ± 0.23; with LKGYACRHCFTTTSKDWHHGQRENILLCTDCRIHFKKYGELP [G21Q], -0.222 ± 0.047; with LKGYACRHCFTTTSKDWHHGNRENILLCTDCRIHFKKYGELP [G21N], -0.515 ± 0.14.
For LKGYACRHCFTTTSKDWHHGKRENILLCTDCRIHFKKYGELP [G21K], the abundance fitness is -0.377 ± 0.058.
With LKGYACRHCFTTTSKDWHHGMRENILLCTDCRIHFKKYGELP [G21M] the figure was -0.291 ± 0.048; with LKGYACRHCFTTTSKDWHHGWRENILLCTDCRIHFKKYGELP [G21W], -0.493 ± 0.055; with LKGYACRHCFTTTSKDWHHGVRENILLCTDCRIHFKKYGELP [G21V], -0.23 ± 0.037.
As for LKGYACRHCFTTTSKDWHHGGRENIELCTDCRIHFKKYGELP [L26E], the figure is -0.167 ± 0.054; as for LKGYACRHCFTTTSKDWHHGGRENIYLCTDCRIHFKKYGELP [L26Y], -0.403 ± 0.11; as for LKGYACRHCFTTTSKDWHHGGRENIWLCTDCRIHFKKYGELP [L26W], -0.188 ± 0.038.
With LKGYACRHCFTTTSKDWHHGGRENISLCTDCRIHFKKYGELP [L26S], the abundance fitness was -0.36 ± 0.046.
With LKGYACRHCFTTTSKDWHHGGRENITLCTDCRIHFKKYGELP [L26T] the figure was -0.05 ± 0.062.
Consider LKGYACRHCFTTTSKDWHHGGRENIFLCTDCRIHFKKYGELP [L26F], for which the abundance fitness was -0.354 ± 0.11.
In the case of LKGYACRHCFTTTSKDWHHGGRENIQLCTDCRIHFKKYGELP [L26Q], the abundance fitness was -0.376 ± 0.05.
With LKGYACRHCFTTTSKDWHHGGRENIPLCTDCRIHFKKYGELP [L26P] the figure was -0.21 ± 0.063; with LKGYACRHCFTTTSKDWHHGGRENIILCTDCRIHFKKYGELP [L26I], 0.004 ± 0.4; with LKGYACRHCFTTTSKDWHHGGRENIHLCTDCRIHFKKYGELP [L26H], -0.386 ± 0.31.
With LKGYACRHCFTTTSKDWHHGGRENIGLCTDCRIHFKKYGELP [L26G] the figure was -0.307 ± 0.04; with LKGYACRHCFTTTSKDWHHGGRENIKLCTDCRIHFKKYGELP [L26K], -0.268 ± 0.062.
With LKGYACRHCFTTTSKDWHHGGRENIDLCTDCRIHFKKYGELP [L26D] the figure was -0.244 ± 0.057.
On to LKGYACRHCFTTTSKDWHHGGRENIRLCTDCRIHFKKYGELP [L26R], for which the abundance fitness was -0.2 ± 0.038.
As for LKGYACRHCFTTTSKDWHHGGRENIVLCTDCRIHFKKYGELP [L26V], the figure is -0.18 ± 0.038; as for LKGYACRHCFTTTSKDWHHGGRENIALCTDCRIHFKKYGELP [L26A], -0.311 ± 0.036.
With LKGYACRHCFTTTSKDWHHGGRENIMLCTDCRIHFKKYGELP [L26M] the figure was 0.023 ± 0.076; with LKGYACRHCFTTTSKDWHHGGRENILPCTDCRIHFKKYGELP [L27P], -0.396 ± 0.059.
Turning to LKGYACRHCFTTTSKDWHHGGRENILECTDCRIHFKKYGELP [L27E], the abundance fitness was -0.318 ± 0.044.
Turning to LKGYACRHCFTTTSKDWHHGGRENILQCTDCRIHFKKYGELP [L27Q], the abundance fitness is -0.498 ± 0.069.
As for LKGYACRHCFTTTSKDWHHGGRENILACTDCRIHFKKYGELP [L27A], the figure is -0.405 ± 0.036.
On to LKGYACRHCFTTTSKDWHHGGRENILMCTDCRIHFKKYGELP [L27M], for which the abundance fitness was -0.209 ± 0.044.
On to LKGYACRHCFTTTSKDWHHGGRENILCCTDCRIHFKKYGELP [L27C], for which the abundance fitness was -0.217 ± 0.086.
LKGYACRHCFTTTSKDWHHGGRENILHCTDCRIHFKKYGELP [L27H]: the abundance fitness is -0.086 ± 0.15.
As for LKGYACRHCFTTTSKDWHHGGRENILFCTDCRIHFKKYGELP [L27F], the figure is -0.444 ± 0.07; as for LKGYACRHCFTTTSKDWHHGGRENILGCTDCRIHFKKYGELP [L27G], -0.494 ± 0.039; as for LKGYACRHCFTTTSKDWHHGGRENILDCTDCRIHFKKYGELP [L27D], -0.541 ± 0.081.
Regarding LKGYACRHCFTTTSKDWHHGGRENILRCTDCRIHFKKYGELP [L27R], the abundance fitness is -0.554 ± 0.035.
Consider LKGYACRHCFTTTSKDWHHGGRENILKCTDCRIHFKKYGELP [L27K], for which the abundance fitness is -0.511 ± 0.045.
LKGYACRHCFTTTSKDWHHGGRENILVCTDCRIHFKKYGELP [L27V]: the abundance fitness was -0.276 ± 0.034.
As to LKGYACRHCFTTTSKDWHHGGRENILICTDCRIHFKKYGELP [L27I], the abundance fitness is -0.172 ± 0.058.
With LKGYACRHCFTTTSKDWHHGGRENILTCTDCRIHFKKYGELP [L27T] the figure was -0.294 ± 0.059; with LKGYACRHCFTTTSKDWHHGGRENILWCTDCRIHFKKYGELP [L27W], -0.259 ± 0.035.
LKGYACRHCFTTTSKDWHHGGRENILYCTDCRIHFKKYGELP [L27Y]: the abundance fitness is -0.301 ± 0.099.
With LKGYACRHCFTTTSKDWHHGGRTNILLCTDCRIHFKKYGELP [E23T] the figure was -0.104 ± 0.043.
With LKGYACRHCFTTTSKDWHHGGRNNILLCTDCRIHFKKYGELP [E23N], the abundance fitness was -0.099 ± 0.061.
As for LKGYACRHCFTTTSKDWHHGGRCNILLCTDCRIHFKKYGELP [E23C], the figure is -0.159 ± 0.05; as for LKGYACRHCFTTTSKDWHHGGRRNILLCTDCRIHFKKYGELP [E23R], -0.255 ± 0.036.
As to LKGYACRHCFTTTSKDWHHGGRKNILLCTDCRIHFKKYGELP [E23K], the abundance fitness is -0.136 ± 0.051.
Regarding LKGYACRHCFTTTSKDWHHGGRGNILLCTDCRIHFKKYGELP [E23G], the abundance fitness is -0.113 ± 0.038.
With LKGYACRHCFTTTSKDWHHGGRMNILLCTDCRIHFKKYGELP [E23M] the figure was -0.187 ± 0.051.
With LKGYACRHCFTTTSKDWHHGGRSNILLCTDCRIHFKKYGELP [E23S] the figure was -0.174 ± 0.038; with LKGYACRHCFTTTSKDWHHGGRDNILLCTDCRIHFKKYGELP [E23D], 0.011 ± 0.054.
As for LKGYACRHCFTTTSKDWHHGGRINILLCTDCRIHFKKYGELP [E23I], the figure is -0.322 ± 0.058; as for LKGYACRHCFTTTSKDWHHGGRLNILLCTDCRIHFKKYGELP [E23L], -0.225 ± 0.035.
LKGYACRHCFTTTSKDWHHGGRYNILLCTDCRIHFKKYGELP [E23Y]: the abundance fitness is -0.489 ± 0.4.
With LKGYACRHCFTTTSKDWHHGGRVNILLCTDCRIHFKKYGELP [E23V] the figure was -0.338 ± 0.046.
As for LKGYACRHCFTTTSKDWHHGGRHNILLCTDCRIHFKKYGELP [E23H], the figure is -0.185 ± 0.25.
As for LKGYACRHCFTTTSKDWHHGGRQNILLCTDCRIHFKKYGELP [E23Q], the figure is -0.038 ± 0.043.
